{"source": "paper PMC3352945", "about": "(The Journal of Cell Biology, 2012)", "key": {"cpTatC [1]": {"target": "T1, cpTatC (pea (endogenous in pea thylakoids))", "assay": "co-IP"}, "cpTatC [2]": {"target": "T1, cpTatC", "assay": "radioligand binding"}}}
{"binder": "tOE17 V-20F precursor protein (natural protein, [3H]-Leu radiolabel (unlabeled tOE17 used as the chase in the dissociation test)) MASAEGDAVAQAGRRAFIGLVATGIVGGALSQAARAETVKTIKIGAPPPPSGGLPGTLNSDQARDFDLPLKERFYLQPLPPAEAAARVKTSAQDIINLKPLIDKKAWPYVQNDLRLRASYLRYDLKTVIASKPKEEKKSLKELTGKLFSTIDDLDHAAKIKSTPEAEKYFAATKDALGDVLAKLG", "values": [{"measurement": "stoichiometry N", "setting": "cpTatC [1]", "result": 0.79, "unit": "tOE17 per cpTatC"}, {"measurement": "Kd", "setting": "cpTatC [2]", "result": 1.07, "unit": "nM"}, {"measurement": "stoichiometry N", "setting": "cpTatC [2]", "result": 1.27, "unit": "tOE17 per cpTatC"}]}
